In PMC6915026:

Target: alpha-synuclein (UniProt P37840 1-140)
Test: interdigitated electrode current change (aptamer-GNP immobilized); 1 uM protein; titration 10 pM-1 uM, detection limit 10 pM (not a Kd); Aptamer-GNP on APTES-modified IDE, blocked with 1 M ethanolamine (30 min, RT); PBS listed as reagent, binding buffer, salt, pH and temperature not stated

B1: antisynuclein aptamer (ssDNA)
DNA: ATAGTCCCATCATTCATTGTATGGTACGGCGCGGTGGCGGGTGCGTGGAGATATTAGCAAGTGTCA
binding result: binds
